Laboratory results: article PMC3527935

Experiments:
[1] = target: soluble LDL receptor ectodomain (UniProt P01130); experiment: ELISA
[2] = target: soluble LDL receptor ectodomain (UniProt P01130); experiment: BLI

Sequence of soluble LDL receptor ectodomain (P01130 22-788): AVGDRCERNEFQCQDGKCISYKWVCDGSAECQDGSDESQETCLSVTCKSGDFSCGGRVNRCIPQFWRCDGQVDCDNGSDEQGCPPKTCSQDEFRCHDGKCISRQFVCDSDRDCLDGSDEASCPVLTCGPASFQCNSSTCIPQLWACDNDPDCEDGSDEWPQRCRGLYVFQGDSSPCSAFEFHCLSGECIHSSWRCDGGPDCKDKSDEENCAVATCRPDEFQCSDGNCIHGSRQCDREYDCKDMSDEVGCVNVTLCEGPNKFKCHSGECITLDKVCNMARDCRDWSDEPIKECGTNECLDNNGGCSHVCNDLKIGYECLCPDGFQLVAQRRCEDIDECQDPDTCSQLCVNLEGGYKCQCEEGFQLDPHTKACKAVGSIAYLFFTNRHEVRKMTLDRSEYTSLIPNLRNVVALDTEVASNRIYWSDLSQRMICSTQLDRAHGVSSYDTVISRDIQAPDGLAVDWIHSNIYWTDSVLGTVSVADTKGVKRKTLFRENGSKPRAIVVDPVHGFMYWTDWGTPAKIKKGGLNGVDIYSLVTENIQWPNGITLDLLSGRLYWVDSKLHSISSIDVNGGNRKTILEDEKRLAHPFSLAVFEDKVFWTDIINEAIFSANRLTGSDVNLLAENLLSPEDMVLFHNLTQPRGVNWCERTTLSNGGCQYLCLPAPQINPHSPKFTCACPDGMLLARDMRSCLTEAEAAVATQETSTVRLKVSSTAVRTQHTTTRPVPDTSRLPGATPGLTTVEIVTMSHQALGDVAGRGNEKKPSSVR

affinity loss against intact PCSK9 (IC50 intact/IC50 cleaved), fold [1] [fold]	Kd [2] [µM]	koff [2] [s⁻¹]	kon [2] [M⁻¹ s⁻¹]	Substance
1.1	0.356	0.0138	39000	purified furin-cleaved PCSK9 (from UniProt Q8NBP7) (natural protein)
1.4	0.268	0.00858	32000	purified hepsin-cleaved PCSK9 (from UniProt Q8NBP7) (natural protein)
